Measurements: patent US9328334B2, “Luciferase derived from lucidina accensa” (OLYMPUS CORPORATION, priority 2011, dated 2016)
Where a chain is given by its changes, count along the chain named. In names and notes the source's numbering stands. Entries after “also recorded” stand apart in the source; their conditions may differ.

B1: P. pyralis luciferase: existing luciferase derived from Photinus pyralis (SEQ ID NO: 33) (protein, listed as Photinus pyralis)
chain: MEDAKNIKKGPAPFYPLEDGTAGEQLHKAMKRYALVPGTIAFTDAHIEVDITYAEYFEMSVRLAEAMKRYGLNTNHRIVVCSENSLQFFMPVLGALFIGVAVAPANDIYNERELLNSMGISQPTVVFVSKKGLQKILNVQKKLPIIQKIIIMDSKTDYQGFQSMYTFVTSHLPPGFNEYDFVPESFDRDKTIALIMNSSGSTGLPKGVALPHRTACVRFSHARDPIFGNQIIPDTAILSVVPFHHGFGMFTTLGYLICGFRVVLMYRFEEELFLRSLQDYKIQSALLVPTLFSFFAKSTLIDKYDLSNLHEIASGGAPLSKEVGEAVAKRFHLPGIRQGYGLTETTSAILITPEGDDKPGAVGKVVPFFEAKVVDLDTGKTLGVNQRGELCVRGPMIMSGYVNNPEATNALIDKDGWLHSGDIAYWDEDEHFFIVDRLKSLIKYKGYQVAPAELESILLQHPNIFDAGVAGLPDDDAGELPAAVVVLEHGKTMTEKEIVDYVASQVTTAKKLRGGVVFVDEVPKGLTGKLDARKIREILIKAKKGGKIAV
B2: mutant luciferase (N50D and I530R): L. accensa luciferase mutant with N50D and I530R, amino acid sequence SEQ ID NO: 2 (protein, listed as Lucidina accensa)
chain: MEEDKNILRGPAPFYPLEDGTAGEQLHRAMKRYALIPGTIAFTDAHAGVDITYSEYFEMACRLAESLKRYGLGLQHRIVVCSENSLQFFMPVVGALFIGVGVAPANDIYNERELLNSMTISQPTLVFCSRKGLQKILNVQKKLPVIQKIIILDTKEDYMGFQSMYSFVDSQLPVGFNEYDYVPDSFDRDQATALIMNSSGSTGLPKGVELNHTSVCVRFSHCRDPVYGNQIIPDTAILSVIPFHHGFGMFTTLGYLICGFRVVLMYRFEEELFLRSLQDYKIQSALLVPTLFSFFAKSTLIDKYDLSNLHEIASGGAPLAKEVGEAVAKRFNLRGIRQGYGLTETTSAVIITPEGDDKPGAVGKVVPFFSAKVVDLDTGKTLGVNQRGELCLKGPMIMKGYVNNPEATNALIDKDGWLHSGDISYWDEDGHFFIVDRLKSLIKYKGYQVPPAELESILLQHPFIFDAGVAGIPDDEAGELPAAVVVLEEGKTMTEKEIMDYVAGQVTTAKRLRGGVVFVDEVPKGLTGKRDARKIREILVKVKKTKSKL
B3: mutant luciferase (E322W): L. accensa luciferase mutant with E322W, amino acid sequence SEQ ID NO: 36 (protein, listed as Lucidina accensa)
chain: B2 chain with D50N, E322W, R530I
B4: mutant luciferase (F294Y, V323L, and E354V): L. accensa luciferase mutant with F294Y, V323L and E354V, amino acid sequence SEQ ID NO: 34 (protein, listed as Lucidina accensa)
chain: B2 chain with D50N, F294Y, V323L, E354V, R530I
B5: L. Biplagiata (literature sequence): luciferase derived from L. biplagiata, sequence disclosed in the literature (Oba et al. 2010), lysine at position 249 (protein, listed as Lucidina biplagiata)
chain: B2 chain with P13A, D50N, N211T, Y227F, M249K, R530L, V542A

What was measured:
HeLa cell = experiment: Luminescence intensity of luciferase expressed in HeLa cell, comparison with P. pyralis luciferase (Example 3); type: cell-based; settings: 2 mM D-luciferin, 25° C., 90 min after starting measurement
Method: Each of the wild type luciferase derived from L. accensa, the mutant luciferase derived from L. accensa (N50D and 1530R), and the luciferase derived from P. pyralis (SEQ ID NO: 33) was expressed in a HeLa cell, and the luminescence intensity was measured and compared to each other.
Further, since the pF9A vector contains the luciferase gene derived from Renilla reniformis as an internal control, it is possible to obtain the luminescence intensity from the luminescent gene inserted to the multicloning site as a ratio compared to the luminescence intensity emitted by the Renilla luciferase.
Three types of plasmids obtained in such a manner described above were each subjected to gene transfection to a HeLa cell, which has been inoculated in a 24-well plate, by a lipofection method, and 24 hours later, the cells were washed with PBS. To each well of a 24-well plate, 500 μL of 2 mM D-luciferin/CO2 Independent Medium (manufactured by Invitrogen) was added and the luminescence intensity was measured for 90 min by using a Luminescensor (manufactured by ATTO Corporation) under the condition including 25° C. and 1 sec per each well. The luminescence intensity which is obtained at the time point of 90 min after starting the measurement was taken as the luminescence intensity of the wild type luciferase, the mutant luciferase, and P. pyralis luciferase. […] Subsequently, 500 μL of 10 μM coelenterazine/CO2 Independent Medium was added to each well and the luminescence intensity was measured for 30 min by using a Luminescensor under the condition including 25° C. and 1 sec per each well. The luminescence intensity obtained at five minutes after the addition of coelenterazine was taken as luminescence intensity of the Renilla luciferase, which is an internal control. Each of the luminescence intensity from the wild type luciferase, the mutant luciferase, and P. pyralis luciferase was divided by the luminescence intensity of the Renilla luciferase, and the results are illustrated as a graph illustrating the luminescence intensity of each luciferase.

[1] = system: E. coli JM109 (DE3) strain; experiment: Temperature dependency of luminescence intensity: E. coli colonies heat treated at 55° C., CCD image (Example 7); type: cell-based, Escherichia coli; settings: 55° C. for 1 hour, 0.5 mM D-luciferin spray
Method: Each of the wild type luciferase gene and two kinds of the mutant gene obtained in the Example 6 was introduced into pRSET-B vector and transformed to E. coli JM109 (DE3) strain to form a colony. Thus-obtained colony was cultured and applied on a LB agar medium to form again the colony for 24 hours. After that, it was subjected to the heat treatment at 55° C. for 1 hour and kept at room temperature for 1 hour. It was then sprayed with a liquid containing 0.5 mM D-luciferin and a photographic image thereof was taken for 1 min by using a CCD camera (trade name: DP70, manufactured by Olympus Corporation).

[2] = Measurement of light emission spectra of purified luciferase under various pH environments; type: biochemical; settings: light emission spectra at various pH
Method: With use of LumiFlSpectroCapture (manufactured by ATTO Corporation) as an apparatus for measurement, to a solution of 0.1 M citric acid/0.1 M Na2HPO4 buffer (pH 5.5 to 8.0) containing 1 mM of D-luciferin, 2 mM of ATP and 4 mM of MgCl2 the purified enzyme was added at a final concentration of 1 μg/mL, and after 15 seconds of addition of the enzyme luminescence spectra was measured. The measurement results were illustrated in FIG. 1.
After that, each of thus-prepared genes (SEQ ID NOs: 38 and 39) was introduced into pRSET-B vector according to the same method as the Example 2. This vector was transformed to E. coli JM109 (DE3) strain to express the mutant luciferase. Subsequently, the mutant luciferase was purified from E. coli. In addition, under various pH environments, the light emission spectrum was measured according to the same method as the Example 2 from a light emitting reaction catalyzed by the mutant luciferase.

[3] = Stability against degradation: SDS-polyacrylamide gel electrophoresis of lysate of E. coli expressing each luciferase (Example 4); settings: lysate of E. coli BL21 (DE3) CodonPlus expressing the luciferase
Method: Stability against degradation was determined for the wild type luciferase derived from L. accensa in comparison with a known luciferase derived from L. biplagiata.
The above three genes were introduced into an expression vector and expressed in E. coli. The expression was carried out in the same manner as the Example 2 except that BL21 (DE3) CodonPlus (manufactured by Stratagene Corporation) was used as E. coli strain and the cells were cultured appropriately.
The lysate was prepared from the E. coli expressing each gene, and then subjected to SDS-polyacrylamide gel electrophoresis. It was confirmed that, as a band with the biggest size, a single band is present near 70 kDa for all three kinds of protein. […] Meanwhile, in the luciferase derived from L. biplagiata (i.e., left and right lanes), several bands with a size smaller than 70 kDa were identified.

HeLa cells = experiment: Luminescence intensity of luciferase expressed in HeLa cells, comparison with L. biplagiata luciferase (Example 5); type: cell-based; settings: 2 mM D-luciferin, 37° C., 90 min
Excerpt: The luminescence intensity from the light emitting reaction using the wild type luciferase derived from L. accensa (SEQ ID NO: 1) was compared to the luminescence intensity from the light emitting reaction using the luciferase derived from L. biplagiata having the literature sequence (SEQ ID NO: 30) or the luciferase derived from L. biplagiata having the cloned sequence (SEQ ID NO: 31). Further, based on the difference between the literature sequence and the cloned sequence, the amino acid residue at position 249 of the amino acid sequence of the wild type luciferase, i.e., methionine, was changed to lysine to prepare the mutant luciferase (M249K), which was then used for the intensity measurement.
With regard to the four types of the luciferase, a nucleic acid containing a gene optimized for mammalian cell expression was given with a Kozak sequence, and then inserted between SgfI and PmeI sites within the multicloning site of pF9A CMV hRLuc neo Flexi vector (manufactured by Promega). Further, since the pF9A vector contains the luciferase gene derived from Renilla reniformis as an internal control in the vector sequence, it is possible to obtain the luminescence intensity from the luminescent gene inserted to the multicloning site as a ratio compared to the luminescence intensity emitted by the Renilla luciferase.
Four types of luciferase plasmids obtained in such a manner described above were each subjected to gene transfection to HeLa cells inoculated in a 48-well plate by a lipofection method, and 24 hours later, the cells were washed with PBS. To each well of a 48-well plate, 500 μL of 2 mM D-luciferin/CO2 Independent Medium (manufactured by Invitrogen) was added and the luminescence intensity was measured for 90 min by using a Luminescensor (manufactured by ATTO Corporation) under the condition including 37° C. and 1 sec per each well. The luminescence intensity which is obtained at the time point of 90 min after starting the measurement was taken as the luminescence intensity of each luciferase. […] Subsequently, 500 μL of 10 μM coelenterazine/CO2 Independent Medium was added to each well and the luminescence intensity was measured for 30 min by using a Luminescensor under the condition including 37° C. and 1 sec per each well. The luminescence intensity obtained at five minutes after the addition of coelenterazine was taken as luminescence intensity of the Renilla luciferase, which is an internal control. Each of the luminescence intensities from the luciferases was divided by the luminescence intensity of the Renilla luciferase, yielding the luminescence intensity of each luciferase. The measurements were carried out multiple times for each luciferase, and the luminescence intensity was obtained as a mean value.

Molecule | luminescence intensity (divided by luminescence intensity of Renilla luciferase internal control) (HeLa cell) | light emission compared to the wild type luciferase at 55° C. [1] | pH environment giving the highest luminescence intensity [2] [pH] | further results
B1 | 6.6 | – | – | –
B2 | 26.5 | – | – | –
B3 | – | stronger light emission; also recorded: higher luminescence intensity | 8.0 | –
B4 | – | stronger light emission; also recorded: higher luminescence intensity | 7.4 | –
B5 | – | – | – | stability against protein degradation (bands on stained SDS-PAGE gel) [3]: stained in a smear shape in the region of 70 kDa or less; luminescence intensity, mean value (divided by Renilla luciferase intensity) (HeLa cells): 0.12
